From patent US20220153796A1

Legend:
HLA-A*24 (human) = test: UV peptide exchange ELISA
HLA-B*44 (human) = test: UV peptide exchange ELISA

| peptide exchange yield (HLA-A*24 (human)) | peptide exchange yield (HLA-B*44 (human)) | Binder |
| --- | --- | --- |
| – | 50 to 75% | EEVNYINTF |
| – | 50 to 75% | HEFSSPSHL |
| – | 20 to 50% | KELEATKQY |
| – | 20 to 50% | KEVDPAGHSY |
| – | 50 to 75% | ALNPYQYQY |
| – | 20 to 50% | ASSSGPMRWW |
| – | > 75% | NEVLTYIKF |
| – | 50 to 75% | YEIEARNQVF |
| – | 50 to 75% | EEATGQFHVY |
| – | 50 to 75% | SEKGVIQVY |
| > 75% | – | KYVKVFDKF |
| – | 20 to 50% | SDMVRFHLF |
| – | > 75% | VEAPGPVHVYW |
| – | 50 to 75% | SEGSEPALLHSW |
| – | 50 to 75% | TEDPTILRI |
| > 75% | – | RYLADLPTL |
| > 75% | – | LYPEGLRLL |
| – | 50 to 75% | MEMQKSPVF |
| – | 50 to 75% | AEIQGNINHV |

| peptide exchange yield (HLA-A*24 (human)) | peptide exchange yield (HLA-B*44 (human)) | Binder |
| --- | --- | --- |
| – | > 75% | KEADIHFLI |
| – | 20 to 50% | AEDEPAAAHL |
| > 75% | – | TWFPKTPMLF |
| – | > 75% | IEFIHPQAF |
| – | 20 to 50% | QEQDVDLVQKY |
| – | > 75% | TENRYCVQL |
| > 75% | – | TYSKKHFRI |
| – | 50 to 75% | EEIERFFKL |
| > 75% | – | VYSDLHAFYY |
| – | 50 to 75% | SEPALLHSW |
| – | 50 to 75% | GECDVFKEIL |
| – | > 75% | MEVDPIGHVYIF |
| – | 50 to 75% | AEQDMRELTY |
| > 75% | – | TYCQNIKEF |
| – | 20 to 50% | TEGIIMKDF |
| 50 to 75% | – | RYKQDVERF |
| 50 to 75% | – | IYHSHHPTL |
| > 75% | – | VYVGAVNRI |

The next lines start with the binder.

| Binder | peptide exchange yield (HLA-A*24 (human)) | peptide exchange yield (HLA-B*44 (human)) |
| --- | --- | --- |
| VFQEKHHVI | 50 to 75% | – |
| AEVPTGVII | – | 50 to 75% |
| FEYDFLLQRI | – | > 75% |
| QEMQHFLGL | – | 50 to 75% |
| GELALKKKI | – | 20 to 50% |
| SENLFFASF | – | > 75% |
| DEVNFLVY | – | 10 to 20% |
| AENLFRAF | – | 20 to 50% |
| AEMLESVIKNY | – | 50 to 75% |
| SEFMQVIF | – | 50 to 75% |
| RFLPSPVVI | > 75% | – |
| EDAQGHIW | – | 50 to 75% |
| GEFPVRVQV | – | 20 to 50% |
| KEGDLGGKQW | – | 50 to 75% |
| AELDKLTSV | – | 50 to 75% |
| AETLSTIQI | – | 50 to 75% |
| DELFSIALY | – | > 75% |
| KYVKDFHKF | > 75% | – |
| MYINEVERL | > 75% | – |

| Binder | peptide exchange yield (HLA-A*24 (human)) | peptide exchange yield (HLA-B*44 (human)) |
| --- | --- | --- |
| RELENCFQIQ | – | 50 to 75% |
| VYNDHSIYVW | > 75% | – |
| GEIIMQNNW | – | > 75% |
| TDSIHAWTF | – | 50 to 75% |
| EEIEGKGSFTYF | – | 50 to 75% |
| GEVHPSEMI | – | 50 to 75% |
| RWLPQKNAAQF | 50 to 75% | – |
| SEMNVNMKY | – | > 75% |
| NYIVPDKQIF | 50 to 75% | – |
| YYSPLRDLL | > 75% | – |
| AEEEIMKKI | – | 20 to 50% |
| AETPIQNVI | – | 50 to 75% |
| AEMLERVIKNY | – | > 75% |
| KFLGPAEHLTF | > 75% | – |
| MEVPVIKI | – | 20 to 50% |
| TEFTTVLY | – | 20 to 50% |
| EEGRVYLF | – | 50 to 75% |
| NEHPSNNW | – | 50 to 75% |
| YEDLSQKY | – | 20 to 50% |
